The source of these data is the supplement of paper PMC9170038.

The data set concerns MS2 coat protein. Description: apparent KD of MS2 coat protein; higher = weaker reporter binding. To be noted: Eterna round: R107. Summed up: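 Apparent KD was obtained for each design as the median of normalised binding-curve fits over its clusters. RNA switches transcribed on-chip from Illumina sequencing clusters were titrated with SNAP-549-labelled MS2 coat protein (twofold steps, 0.7 or 1.5 nM to 3 µM) in 100 mM Tris-HCl pH 7.5, 80 mM KCl, 4 mM MgCl2, without or with constant ligand.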

The mark [1] stands for this setting: input ligand: theophylline 20 uM.
Setting [2] is: input ligand: theophylline 2 mM.
Setting [3] is: input ligand: tryptophan 2.4 mM.

As for “AGUCUUAUAGGAAGGAGCGCAUACUUCACAUGAGGAUCACCCAUGUCAAGACGUGAGUCAGUGCAGGUAGGUCGCCUAACUAAGA [Same State - Arginine B (Freestyle 13)]”, the “apparent KD of MS2 coat protein” value runs as follows: (input ligand: arginine 13.2 mM) 27.2 nM; (input ligand: none) 29.2 nM; under setting [1], 29.7 nM; under setting [2], 32.1 nM; under setting [3], 27.7 nM.

As to “AGUCUUGAACGAAGGAGCGACGUACAUGAGGAUCACCCAUGUGUGGAGCGAAAGCUCCAACGUCAGGUAGGUCGCGUUCGAGACA [Omei Arginine B SS A v2]”, the “apparent KD of MS2 coat protein” value is, setting by setting: (input ligand: arginine 13.2 mM) 14.9 nM; (input ligand: none) 12.8 nM; under setting [1], 18 nM; under setting [2], 14.9 nM; under setting [3], 13.9 nM.

With “AGUGGUGCAACUGAUACCAGAUUUAUACGAGACAUGAGGAUCACCCAUGUCGAAAGACAAAUCCCUUGGCAGCAGACACGAUCCC [theeternabot_sameState_MS2_Theo_B_25]”, the “apparent KD of MS2 coat protein” value worked out at 9.88 nM (input ligand: arginine 13.2 mM), 10.4 nM under setting [1] and 9.65 nM under setting [3].

In the case of “AGUGUAUCCAUCGAUACCAGCCACCACCGAUAGACCACAUGAGGAUCACCCAUGUUGGGUGGCCCUUGGCAGCGGUGGCUGUGUA [Same State - Theophylline B Attempt #2 (HarryS)]”, the “apparent KD of MS2 coat protein” value was 57.5 nM (input ligand: arginine 13.2 mM), 512 nM under setting [1] and 546 nM under setting [3].

On to “AGUGUUAUAACUGAUACCAGACUCUCAUGUUUACAUGAGGAUCACCCAUGUUAUUUCUUUGUCCCUUGGCAGCAGAAUUAACACA [JR_SSTheophyB_Sub010]”, for which the “apparent KD of MS2 coat protein” value is 152 nM (input ligand: arginine 13.2 mM), 175 nM under setting [1] and 215 nM under setting [3].

For “AGUUAUUCGAACAUGGUUGACGAGUGGCAACGAGGACCGGUACGGCCGCCACUCGAAUAAACAUGAGGAUCACCCAUGUACAAAU [T''-M'-T'-T-MS2 - Design 10]”, the “apparent KD of MS2 coat protein” value amounted to 72.1 nM (input ligand: arginine 13.2 mM), 264 nM under setting [1] and 442 nM under setting [2].

On to “AUAAAUAAGGCGGCCGCCACUAAUAUAUUAAUAUUUUAUAUCCGACAUGAGGAUCACCCAUGUGGUAGGACCGGGCCAAUAAUUA [Same State - Tryptophan B]”, for which the “apparent KD of MS2 coat protein” value (input ligand: arginine 13.2 mM) was found to be 20.4 nM, the “apparent KD of MS2 coat protein” value under setting [1] was 43.4 nM and the “apparent KD of MS2 coat protein” value under setting [2] turned out to be 25 nM.

“AUAAAUAAUAAAUAAAAUAAAGUGGGUGAACGAGGACCGGUACGGCCGCCACUCGGACAUGAGGAUCACCCAUGUCCAUGUGAAA [AstrosExyTry#1]”: the “apparent KD of MS2 coat protein” value was found to be 13.1 nM (input ligand: arginine 13.2 mM), 22.4 nM under setting [1] and 19.2 nM under setting [2].

In the case of “AUAACAUGAGGAUCACCCAUGUAAGCUGAAGGAGCGCUGGAAACAGCAGGUAGGUCGCAGCAUGUUUCCACAUGGGUAGGAAACU [(M1)-(M2)-(Arg1)-(Arg2)-(A)'-(M)'-(A)''_Design8]”, the “apparent KD of MS2 coat protein” value is, setting by setting: (input ligand: arginine 13.2 mM) 42.4 nM; (input ligand: none) 80 nM; under setting [1], 86.2 nM; under setting [2], 123 nM; under setting [3], 49.5 nM.

Turning to “AUAACAUGAGGAUCACCCAUGUAAGCUGAAGGAGCGGACGAAAGUCCAGGUAGGUCGCAGCGUUCCUUCACCUCAUGAGAAGGAG [SSArg-A #30 with U all better]”, the “apparent KD of MS2 coat protein” value runs as follows: (input ligand: arginine 13.2 mM) 17.8 nM; (input ligand: none) 22.5 nM; under setting [1], 37.5 nM; under setting [2], 24 nM; under setting [3], 21.6 nM.

For “AUAACAUGAGGAUCACCCAUGUAAGGUGAUACCAGACGAAGUAAAGUCCCUUGGCAGCACAAGCAUAGUUGCGAAUAUUGAUAGA [JR_SSTheophyA_Sub005]”, the “apparent KD of MS2 coat protein” value (input ligand: arginine 13.2 mM) came to 264 nM, the “apparent KD of MS2 coat protein” value under setting [1] turned out to be 532 nM and the “apparent KD of MS2 coat protein” value under setting [3] came out at 632 nM.

Turning to “AUAACAUGAGGAUCACCCAUGUUGAGUGAUACCAGACUAUGUAAUGUCCCUUGGCAGCACAAGUAAAGUUAUAAAUAAUGAUAGA [#12 SameState-TheophyllineA]”, the “apparent KD of MS2 coat protein” value reads like this: (input ligand: arginine 13.2 mM) 48.2 nM; under setting [1], 55.1 nM; under setting [3], 47.2 nM.

As to “AUAACUGUCAAGGAAGGUGAUCCAGCAGAUACCAGCUAGGAAACUAGCCCUUGGCAGCUGCAACAUGAGGAUCACCCAUGUAAUA [(T)'-(M)'-(T1)-(T2)-(M1)-(M2)_Design9]”, the “apparent KD of MS2 coat protein” value (input ligand: arginine 13.2 mM) was 61 nM, the “apparent KD of MS2 coat protein” value under setting [1] was determined as 135 nM and the “apparent KD of MS2 coat protein” value under setting [3] stood at 59.3 nM.

As for “AUAAGUAAUGUCUCGUGUAUUAUUACAGAUACCAGACUAUCCUAUGUCCCUUGGCAGCUGGAUUACAUGAGGAUCACCCAUGUUG [#10 Exclusion-TheophyllineA]”, the “apparent KD of MS2 coat protein” value is, setting by setting: (input ligand: arginine 13.2 mM) 21.5 nM; under setting [1], 25.3 nM; under setting [3], 22 nM.

For the sequence “AUAAGUAUGUUUUCGUGUUUUAUUACAGAUACCAGACUAUACGUUGUCCCUUGGCAGCUGGAUUACAUGAGGAUCACCCAUGUUG [#26 Exclusion-TheophyllineA]”, the “apparent KD of MS2 coat protein” value is, setting by setting: (input ligand: arginine 13.2 mM) 19.9 nM; under setting [1], 32 nM; under setting [3], 23.1 nM.

For “AUAAUAAGGUGAUCCUAAGUCGUACCGUAACGAGGACCGGUACGGCCGCCACUCGAACAUGAGGAUCACCCAUGUAUGUACGACA [M'-T'-T-MS2-T'' - Design 6]”, the “apparent KD of MS2 coat protein” value runs as follows: (input ligand: arginine 13.2 mM) 28.1 nM; (input ligand: none) 56.1 nM; under setting [1], 96.1 nM; under setting [2], 170 nM; under setting [3], 75.9 nM.

With “AUAAUGGGUUUCGGACUAUCAUGGAAUGAUACCAGAUACUUAGAAAUCCCUUGGCAGCAUGAGGACAUGAGGAUCACCCAUGUAU [Th A Ex t1]”, the “apparent KD of MS2 coat protein” value stood at 41.9 nM (input ligand: arginine 13.2 mM), 78.9 nM under setting [1] and 71.4 nM under setting [3].
